Source: patent US20240254196A1

Assays:
human IL-1α (human) [1] = target: human IL-1α (human) (UniProt P01583); test: cell-based or functional assay
human IL-1β (human) [2] = target: human IL-1β (human) (UniProt P01584); test: cell-based or functional assay
human IL-1α (human) [3] = target: human IL-1α (human) (UniProt P01583); test: SPR, Biacore T200; binder captured by anti-human Fc, cytokine injected; 1:1 Langmuir
human IL-1β (human) [4] = target: human IL-1β (human) (UniProt P01584); test: as above
mouse IL-1α (mouse) = mouse IL-1α (mouse) (UniProt P01582); test: as above
mouse IL-1α (mouse), sequence (P01582 115-270 limits assumed): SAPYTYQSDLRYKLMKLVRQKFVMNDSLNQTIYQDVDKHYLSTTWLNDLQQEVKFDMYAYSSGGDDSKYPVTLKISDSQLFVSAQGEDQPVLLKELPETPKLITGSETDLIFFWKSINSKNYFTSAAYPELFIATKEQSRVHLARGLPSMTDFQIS

mouse IL-1β (mouse) = mouse IL-1β (mouse) (UniProt P10749); test: as above
mouse IL-1β (mouse), sequence (P10749 118-269 limits assumed): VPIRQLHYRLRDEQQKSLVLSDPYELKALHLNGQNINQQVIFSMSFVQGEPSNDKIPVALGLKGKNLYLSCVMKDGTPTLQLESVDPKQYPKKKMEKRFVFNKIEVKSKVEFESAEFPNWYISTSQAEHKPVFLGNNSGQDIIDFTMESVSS

[5] = target: rhesus monkey (Rhesus macaque) IL-1β (rhesus monkey (Rhesus macaque)) (UniProt P48090); test: as above
human FcγRI (human) [6] = target: human FcγRI (human) (UniProt P12314); test: BLI, Octet Red96e; His-tagged FcγRI on anti-Penta-HIS sensor, 80-1,280 nM analyte; 1:1 model
human FcγRI (human), sequence (P12314 16-288 limits assumed): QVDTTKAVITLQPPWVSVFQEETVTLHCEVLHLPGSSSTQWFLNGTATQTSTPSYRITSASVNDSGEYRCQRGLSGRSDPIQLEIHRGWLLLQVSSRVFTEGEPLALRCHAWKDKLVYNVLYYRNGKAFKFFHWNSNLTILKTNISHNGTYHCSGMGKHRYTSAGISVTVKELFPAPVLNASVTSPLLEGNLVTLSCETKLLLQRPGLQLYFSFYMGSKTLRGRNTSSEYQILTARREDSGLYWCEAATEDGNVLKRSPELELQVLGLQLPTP

human IL-1β (human) [7] = target: human IL-1β (human) (UniProt P01584); test: ELISA, human IL-1β coated at 30 ng/well, detection with anti-human IgG Fc-HRP, OD 450 nm
human FcγRIIIA (human) [8] = target: human FcγRIIIA (human) (UniProt P08637); test: BLI, Octet Red96e; His-tagged FcγRIIIA on anti-Penta-HIS sensor, 80-1,280 nM analyte; 1:1 model
human FcγRIIIA (human), sequence (P08637 17-208 limits assumed): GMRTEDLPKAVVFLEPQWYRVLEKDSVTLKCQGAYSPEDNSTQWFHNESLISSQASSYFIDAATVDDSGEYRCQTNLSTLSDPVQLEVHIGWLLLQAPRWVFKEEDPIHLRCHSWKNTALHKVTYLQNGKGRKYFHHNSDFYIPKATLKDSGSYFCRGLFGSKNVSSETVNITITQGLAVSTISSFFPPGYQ

human FcγRIIIA (human) [9] = target: human FcγRIIIA (human) (UniProt P08637); test: BLI (Octet Red96e), His-tagged human FcγRIIIA on Anti-Penta-HIS biosensor, analyte 80-1280 nM, 1:1 model [B]
[10] = target: Human FcRn (Homo sapiens) (UniProt P55899); test: BLI (Octet Red96e), His-tagged human FcRn on Anti-Penta-HIS biosensor, pH 6.0, analyte 31.25-1000 nM, 1:1 model [A]
human FcγRI (human) [11] = target: human FcγRI (human) (UniProt P12314); test: BLI (Octet Red96e), His-tagged human FcγRI on Anti-Penta-HIS biosensor, analyte 10-160 nM as printed on the sheet, 1:1 model [B]

human IL-1α (human), sequence (P01583 113-271 limits assumed): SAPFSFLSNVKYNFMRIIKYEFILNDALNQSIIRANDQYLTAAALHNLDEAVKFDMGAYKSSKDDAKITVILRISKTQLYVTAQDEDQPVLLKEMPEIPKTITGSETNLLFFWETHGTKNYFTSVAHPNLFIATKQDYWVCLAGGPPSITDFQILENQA

An SEAP secretion, IL-1β reporter HEK 293 cell line, 10 ng/ml human IL-1α (human IL-1α (human) [1]) of 0.308 nM, an EC50 of in vivo neutralisation: inhibition of the rise of serum IL-6 in C57BL/6 mice given human IL-1β (300 ng/kg i.p.) 24 h after s.c. rilonacept (human IL-1β (human) [2]) of 10.5 µg/kg and an IL-1β-mediated IL-6 secretion, A549 cell line, 1 ng/ml IL-1β (human IL-1β (human) [2]) of 37 pM were found for rilonacept (Fc fusion) in this work. It also gave an SEAP secretion, IL-1β reporter HEK 293 cell line, 10 ng/ml human IL-1β (human IL-1β (human) [2]) of 0.243 nM, an inhibition of SEAP secretion at 4 nM, IL-1β reporter HEK 293 cell line (human IL-1β (human) [2]) of 99.5% and an inhibitory activity (%) on the IL-1β-induced rise of serum IL-6 in mice, at a 3-fold molar excess over the administered IL-1β (human IL-1β (human) [2]) of 50%. It also gave a Kd (human IL-1α (human) [3]) of 0.00491 nM, a koff (human IL-1α (human) [3]) of 4.5e-05 s⁻¹ and a kon (human IL-1α (human) [3]) of 9.18e+06 M⁻¹ s⁻¹. For the same substance, the Kd (human IL-1β (human) [4]) was 0.00256 nM, the koff (human IL-1β (human) [4]) was 8.67e-05 s⁻¹ and the kon (human IL-1β (human) [4]) was 3.39e+07 M⁻¹ s⁻¹. For the same substance, the Kd (mouse IL-1α (mouse)) was 0.0383 nM, the koff (mouse IL-1α (mouse)) was 0.000178 s⁻¹ and the kon (mouse IL-1α (mouse)) was 4.66e+06 M⁻¹ s⁻¹. It also gave a Kd (mouse IL-1β (mouse)) of 0.369 nM, a koff (mouse IL-1β (mouse)) of 0.000328 s⁻¹ and a kon (mouse IL-1β (mouse)) of 890000 M⁻¹ s⁻¹. For the same substance, the Kd [5] was 0.00178 nM, the koff [5] was 2.43e-05 s⁻¹ and the kon [5] was 1.36e+07 M⁻¹ s⁻¹. For the same substance, the Kd (human FcγRI (human) [6]) was 45.8 nM, the EC50 (human IL-1β (human) [7]) was 0.0947 nM and the Kd (human FcγRIIIA (human) [8]) was 913 nM. For the same substance, the koff (human FcγRIIIA (human) [9]) was 0.0538 s⁻¹, the kon (human FcγRIIIA (human) [9]) was 59000 M⁻¹ s⁻¹ and the Kd [10] was 453 nM. For the same substance, the koff [10] was 0.0489 s⁻¹, the kon [10] was 108000 M⁻¹ s⁻¹ and the koff (human FcγRI (human) [11]) was 0.00209 s⁻¹. It also gave a kon (human FcγRI (human) [11]) of 45600 M⁻¹ s⁻¹.
